From publication PMC7611325 (Molecular cell, 2021)

Target: PAF1c (Polymerase II associated factor 1 complex; CTR9, Leo1, Paf1, CDC73, WDR61) (UniProt Q6PD62;Q8WVC0;Q8N7H5;Q6P1J9;Q9GZS3)
Assay: pull-down

B1: GST-MYC^1-163 (glutathione-S-transferase fusion protein that encompasses amino acids 1 to 163 of human MYC) (domain or fragment)
chain: MPLNVSFTNRNYDLDYDSVQPYFYCDEEENFYQQQQQSELQPPAPSEDIWKKFELLPTPPLSPSRRSGLCSPSYVAVTPFSLRGDNDGGGGSFSTADQLEMVTELLGGDMVNQSFICDPDDETFIKNIIIQDCMWSGFSAAAKLVSEKLASYQAARKDSGSPN
**Q.** Does B1 bind?
**A.** binds
